This note sets out measurements from US20240033341A1 (CALIFORNIA INSTITUTE OF TECHNOLOGY, published 2024).

Experiment [1] concerns the target T1, IGT2 gp120 (HIV-1 (clade C strain 426c, engineered)). As to the kind of experiment: ELISA, gp120 coated on the plate, IgG titrated. For orientation: An ELISA detects its analyte on a solid surface through an enzyme-linked reagent.
A further experiment concerns the target T2, IGT2 SOSIP (HIV-1 (clade C strain 426c, engineered)).
T2 construct: also called SOSIP version of IGT2
As to the kind of experiment: SPR with SOSIP (FIG. 6I), ELISA (FIG. 1E).

The target of experiment [2] is T1, IGT2 gp120. Briefly: ELISA with gp120 (FIG. 1E, FIG. 6J).
The next experiment concerns the target 426c.TM4 gp120 (HIV-1 (clade C strain 426c, engineered)). As to the kind of experiment: ELISA, gp120 coated on the plate, IgG titrated.
The target of another experiment is CNE20 N276A. Briefly: Env ELISA, IgG dilution series on SOSIP trimer, area under the binding curve.
A further experiment deals with BG505. The experiment is described as above.
A further experiment concerns the target T3, CNE20.
T3 construct: also called CNE20 SOSIP
The experiment is described as above.

The target in the next experiment is T4, CE0217 (Autologous).
T4 construct: also called CE0217 SOSIP
The experiment is described as above.

B1: VRC01 iGL IgG (antibody, V domains shown)
VH: not shown
VL: EIVLTQSPATLSLSPGERATLSCRASQSVSSYLAWYQQKPGQAPRLLIYDASNRATGIPARFSGSGSGTDFTLTISSLEPEDFAVYYCQQYEFFGQGTKLEIKR
For the molecule B1, the binding result in the experiment with IGT2 gp120 [1] and in the experiment with IGT2 SOSIP was “binds” throughout.

B2: 3BNC60 iGL IgG (antibody, V domains shown)
VH: not shown
VL: DIQMTQSPSSLSASVGDRVTITCQASQDISNYLNWYQQKPGKAPKLLIYDASNLETGVPSRFSGSGSGTDFTFTISSLQPEDIATYYCQQYEFIGPGTKVDIKR
As to B2, the binding result with IGT2 gp120 [2], with 426c.TM4 gp120 and with IGT2 SOSIP was “binds” each time.

B3: IO-003 (antibody, V domains shown)
VH: QVQLVQSGAEVKKPGASVTVSCKASGYTFTDYFIHWVRQAPGQGLEWMGWINPFRGAVDYAQKFRGRVTMTRDTSITTAYMELSRLRSDDTAVYYCARAMFDSSDEWSPWHGLVAWGQGTLVTVSS
VL: QSALTQPASVSGSPGQSITISCTGTSRDIGSFNLVSWYQQHPGKAPKLMIYDVSKRPSGVSNRFSGSKSDNMASLIISGFQAEDEAEYFCCSFAGSLAFGGGTKLTVL
Turning to B3, the binding result with CNE20 N276A, with BG505 and in the experiment with CNE20 was “binds” throughout.

B4: IOMA IgG (antibody, V domains shown)
VH: EVQLVESGAQVKKPGASVTVSCTASGYKFTGYHMHWVRQAPGRGLEWMGWINPFRGAVKYPQNFRGRVSMTRDTSMEIFYMELSRLTSDDTAVYYCAREMFDSSADWSPWRGMVAWGQGTLVTVSS
VL: QSALTQPASVSGSPGQSITISCAGSSRDVGGFDLVSWYQQHPGKAPKLIIYEVNKRPSGISSRFSASKSGNTASLTISGLQEEDEAHYYCYSYADGVAFGGGTKLTVLG
notes: Mature CD4bs bNAb; also called mature IOMA
In the case of B4, the binding result in the experiment with CNE20 N276A, in the experiment with BG505, with CE0217 (Autologous) and with CNE20 was “binds” in each case.

B5: IO-010 (antibody, V domains shown)
VH: QVQLVQSGAEVKKPGASVTVSCKASGYTFTGYHLHWVRQAPGQGLEWMGWINPFRGAIGYAQKFRGRVTMTRDTSIITAYMELRGLRSDDTAVYFCAREMFDSDDEWSPWRGMVAWGQGTLVTVSS
VL: QSALTQPASVSGSPGQSITISCTGTSSDIGGYNLVSWYQQHPGKAPKLMIYDVNKRPSGVSNRFSGSKSGNTASLTISGFQAEDEADYYCCSYADTLVFGGGTKLTVL
notes: also called 10-010
On to B5, for which the binding result with CNE20 N276A, in the experiment with BG505, with CE0217 (Autologous) and with CNE20 was “binds” each time.

B6: IO-008 (antibody, V domains shown)
VH: QVQLVQSGAEVKKPGASVTVSCKASGYTFTGYELHWVRQAPGQGLEWMGWINPYRGAVKYAQKFQGRVTMTRDTSISTAYMVLNGLRSDDTAVYYCARDMFDSSDEWSPWRGMVAWGQGTPVTVSS
VL: QSALTQPASVSGSPGQSITISCTGTSSDVGSYDLVSWYQQHPGKAPKLMIYEVSKRPSGVSNRFSGSKSGNTASLTISGLQAEDEADYYCCSYADSLVFGGGTKVTGL
Take B6: the binding result with CNE20 N276A, with BG505 and with CNE20 was “binds” in each case.

B7: IO-050 (antibody, V domains shown)
VH: QVQLVQSGAEVKKPGASVRVSCKASGYTFTDYEIHWVRQAPGQGLEWMGWINPFRGAVKYRQKFQGRVTMTRDPSITTAYMELSRLRSDDTARYYCAREMFDSDDEWSPWRGMVAWGQGTLVTVSS
VL: QSALTQPASVSGSPGQSITISCTGTSSDVGSYNLVSWYQQHPGKAPKLMIYEVSRRPSGVSNRFSGSKSGNTASLTISGFQAEDEADYYCCSYADTLIFGGGTKLTVL
As to B7, the binding result in the experiment with CNE20 N276A is on record as “binds”; with BG505, “no binding”; with CE0217 (Autologous), “binds”; in the experiment with CNE20, “binds”.

B8: IO-017 (antibody, V domains shown)
VH: QVQLVQSGAEVKKPGASVTVSCKASGYTFTGYHLHWVRQAPGQGLEWMGWINPFRGAIGYAQKFRGRVTMTRDTSINTAYMELRGLRSDDTAVYFCAREMFDSDDDWSPWRGMVAWGQGTLVTVSS
VL: QSALTQPASVSGSPGQSITISCTGTSSDIGGYDLVSWYQQHPGKAPKLMIYDVNKRPSGVSNRFSGSKSGNTASLTISGFQAEDEADYYCCSYADTLVFGGGTKLTVL
notes: also called 10-017
With B8, the binding result with CNE20 N276A was “binds”; in the experiment with CE0217 (Autologous) it was “binds”; in the experiment with CNE20 it was “no binding”.
